Assay results taken from patent publication US20140235820A1, “METHODS AND COMPOSITIONS FOR MODULATING THE Wnt PATHWAY” (Genentech, Inc., priority 2010, published 2014).
Where a chain is given by its changes, count along the chain named.

B1: Sclerostin (wild type) (ligand, UniProt Q9BQB4 24-213, looked up)
chain: QGWQAFKNDATEIIPELGEYPEPPPELENNKTMNRAENGGRPPHHPFETKDVSEYSCRELHFTRYVTDGPCRSAKPVTELVCSGQCGPARLLPNAIGRGKWWRPSGPDFRCIPDRYRAQRVQLLCPGGEAPRARKVRLVASCKCKRLTRFHNQSELKDFGTEAARPQKGRKPRPRARSAKANQAELENAY
notes: also called SOST; Sost

Tests used:
LRP6 E1E2 = target: T1, LRP6 E1E2 (Homo sapiens, UniProt O75581); test: Competition phage ELISA, peptide affinity for LRP6 E1E2; assay type: binding; conditions: relative to Dkk1 peptide
T1 construct: construct E1E2-amino acids A20-E631 of LPR6; made in house; host or cells: Tni insect cells (baculovirus, secreted)
T1 sequence (O75581 20-631): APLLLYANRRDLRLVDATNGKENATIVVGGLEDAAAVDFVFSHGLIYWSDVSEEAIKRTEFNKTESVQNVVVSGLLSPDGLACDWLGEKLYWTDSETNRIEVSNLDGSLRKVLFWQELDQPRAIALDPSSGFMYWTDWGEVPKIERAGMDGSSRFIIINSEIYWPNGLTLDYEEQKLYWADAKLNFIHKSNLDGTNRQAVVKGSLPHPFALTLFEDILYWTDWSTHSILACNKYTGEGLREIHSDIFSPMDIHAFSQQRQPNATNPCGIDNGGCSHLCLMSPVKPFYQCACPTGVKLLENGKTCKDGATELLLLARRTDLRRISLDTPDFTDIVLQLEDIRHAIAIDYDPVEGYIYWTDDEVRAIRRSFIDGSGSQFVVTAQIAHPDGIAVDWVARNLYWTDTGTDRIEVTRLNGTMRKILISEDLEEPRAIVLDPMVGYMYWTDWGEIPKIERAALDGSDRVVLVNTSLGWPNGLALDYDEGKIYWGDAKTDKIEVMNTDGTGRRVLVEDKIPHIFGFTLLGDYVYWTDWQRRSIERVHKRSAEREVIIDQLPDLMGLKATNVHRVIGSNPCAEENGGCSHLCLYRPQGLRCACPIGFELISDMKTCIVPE
Experimental: Peptide affinities were also determined by competition with phage displaying a binding peptide (competition phage ELISA). Serial dilutions of test peptide were mixed with an appropriate (non-saturating) concentration of phage before exposing the mixture to target and allowing it to reach equilibrium. After washing to remove unbound material, bound phage were detected by incubation with anti-M13 antibody-horseradish peroxidase (HRP) conjugate and exposure to a suitable colorometric HRP substrate.
Seven-residue peptides from Dkk1 and Sost were synthesized by standard Fmoc procedures. FIG. 7B. These peptides include the “NXI” motif described above. Affinities of the peptides for LRP6 E1E2 were determined by competition phage ELISA (41). […] To understand the detailed interactions of the peptides with LRP6, we determined high-resolution co-crystal structures of the peptides bound to the LRP6 E1 β-propeller. Structures were determined by molecular replacement and refined to 1.9 and 1.5 Å resolution for Dkk1 and Sost peptides, respectively (FIG. 8). Remarkably, the peptides show very similar bound-state conformations compared to the antibody loop, in each case placing the key asparagine side chain in position for the “handshake” interaction described above. Peptide isoleucine residues occupy the hydrophobic pocket where the valine side chain of the antibody loop interacts. […]

LRP6 E1E2 Arg141Met = target: T2, LRP6 E1E2 Arg141Met (human, UniProt O75581 20-631); test: BLI steady-state affinity
T2 construct: range 20-631; also called LRP6 E1E2 R141M
T2 sequence (looked up): T1 sequence (O75581 20-631) with R122M
Experimental: (§1) Binding kinetics were measured by biolayer interferometry using an Octet Red instrument (ForteBio) as previously described (11). Streptavidin (SA) biosensors were loaded with biotinylated hLRP6 in 50 mMTris, pH 8, 300 mM NaCl, 5% (v/v) glycerol, and 0.05% (w/v) Triton X-100. The loaded biosensors were washed in the same buffer before carrying out association and dissociation measurements for the indicated times. The Kd of each interaction was determined using steady state-analysis through the Octet Red software v6.3. Each reported value represents an average of three or more experiments at different concentrations, with a fitted experimental curve for which the square of the correlation coefficient (R²) is above 0.96.

LRP6 E1E2 Asn185Ser = target: T3, LRP6 E1E2 Asn185Ser (human, UniProt O75581 20-631); test: BLI steady-state affinity
T3 construct: range 20-631; also called LRP6 E1E2 N185S (analogue of LRP5 BMD mutation Asn198Ser)
T3 sequence (looked up): T1 sequence (O75581 20-631) with N166S
Experimental: as §1

[1] = target: T4, human LRP6 construct E4 (T933-Q1253) (human, UniProt O75581 933-1253, biotinylated for biolayer interferometry); test: BLI, biotinylated LRP6 on streptavidin tips
T4 construct: range 933-1253; also called LRP6 E4
T4 sequence (looked up): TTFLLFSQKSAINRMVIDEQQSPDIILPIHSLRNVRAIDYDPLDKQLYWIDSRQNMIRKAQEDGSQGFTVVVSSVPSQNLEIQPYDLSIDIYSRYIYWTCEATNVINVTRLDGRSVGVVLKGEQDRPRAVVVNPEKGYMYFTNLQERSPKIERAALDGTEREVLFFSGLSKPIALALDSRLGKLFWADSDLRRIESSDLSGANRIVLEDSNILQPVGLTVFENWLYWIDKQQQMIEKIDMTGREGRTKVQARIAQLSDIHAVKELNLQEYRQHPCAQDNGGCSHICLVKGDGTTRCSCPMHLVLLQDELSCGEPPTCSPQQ
Experimental: as §1
(§2) Purified receptors contained individual β-propeller-EGF-like units (E1, E2, or E4), two β-propellers (E1E2 or E3E4), or four β-propellers (E1E4))—as follows: […]

[2] = target: T5, human LRP6 construct E3E4 (amino acids E631-Q1253) (human, UniProt O75581 631-1253, biotinylated for biolayer interferometry); test: BLI, biotinylated LRP6 on streptavidin tips
T5 construct: range 631-1253; also called LRP6 E3E4
T5 sequence (looked up): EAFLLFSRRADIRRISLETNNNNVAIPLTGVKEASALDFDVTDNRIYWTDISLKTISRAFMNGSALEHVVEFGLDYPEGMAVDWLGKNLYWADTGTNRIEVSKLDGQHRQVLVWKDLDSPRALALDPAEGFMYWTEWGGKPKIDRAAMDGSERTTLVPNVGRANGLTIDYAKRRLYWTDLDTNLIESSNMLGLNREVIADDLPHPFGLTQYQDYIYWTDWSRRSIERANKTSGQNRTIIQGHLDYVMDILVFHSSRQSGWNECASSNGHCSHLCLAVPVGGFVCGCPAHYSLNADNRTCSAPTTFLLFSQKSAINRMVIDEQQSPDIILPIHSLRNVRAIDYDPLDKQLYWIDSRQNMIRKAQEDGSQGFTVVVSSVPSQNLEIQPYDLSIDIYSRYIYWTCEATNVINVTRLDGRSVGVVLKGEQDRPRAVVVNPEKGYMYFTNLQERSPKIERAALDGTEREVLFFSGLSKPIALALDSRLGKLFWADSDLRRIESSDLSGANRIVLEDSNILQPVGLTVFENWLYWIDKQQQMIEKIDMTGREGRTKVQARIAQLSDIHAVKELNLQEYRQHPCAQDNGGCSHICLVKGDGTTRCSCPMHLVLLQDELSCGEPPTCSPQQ
Experimental: as §1, §2

Row | Molecule | binds more weakly than the Dkk1 peptide (LRP6 E1E2) | fold loss in affinity against wild-type LRP6 E1E2 (LRP6 E1E2 Arg141Met) [fold] | fold loss in affinity against wild-type LRP6 E1E2 (LRP6 E1E2 Asn185Ser) [fold] | binding result [1] | binding result [2]
1 | Ac-LPNAIGR-NH2 (N-terminus and C-terminus assumed) [sclerostin peptide] | about 10 fold | – | – | – | –
2 | B1 | – | 31 | 59 | no binding | no binding
